The values that follow come from patent US10538583 (dated 2020).

Numbering of substitutions follows the chain as printed.

The target of test [1] is human ApoC3 (human). Put plainly: SPR pH 7.4, antibody immobilized.
In test [2] the target is human ApoC3 (human). Put plainly: SPR pH 5.5.
The target of test [3] is human ApoC3 (human). Put plainly: SPR pH 5.5, antibody immobilized.
The target in test [4] is human ApoC3 (human). Put plainly: SPR pH 7.4.
Test [5] concerns the target human ApoC3 (human). Put plainly: SPR pH 5.5. The source holds these as a separate data set.
The target of test [6] is human ApoC3 (human). Put plainly: SPR pH 7.4. This is another data set of the same source.
Test [7] addresses human ApoC3 (human). Put plainly: SPR pH 7.4. This is another data set of the same source.
Test [8] addresses human ApoC3 (human). Put plainly: SPR pH 5.5. The source holds these as a separate data set.

human ApoC3 (human), sequence (chain, as listed by the source): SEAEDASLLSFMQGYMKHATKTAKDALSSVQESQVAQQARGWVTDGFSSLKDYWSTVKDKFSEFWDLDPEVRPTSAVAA

B1: mAb2 (antibody, V domains shown)
VH: QLVESGGGLVQPGGSLRLSCAASGFTFGTYSMRWVRQVPGKGLEWVSSIHTEGGGTAYRDSVKGRFTISRDNAKNTLYLQMNSLRAEDTAIYYCVIAGYSDWGQGTLVTVSS
VL: DIVMTQSPLSLPVTPGESASISCKTSQGLVHSDGKTYFYWFLQKPGQSPQQLIYQVSNRASGVPDRFSGSGSGTDFTLKISRVKAEDAGVYYCAHGTYYPHTFGQGTRLEIK
Usually Kd stands for a measure of binding affinity in units of concentration. B1: the Kd with human ApoC3 [1] came out at 103 nM; in the test with human ApoC3 [2], 0.283 nM; in the test with human ApoC3 [3], 290 nM; with human ApoC3 [4], 0.0552 nM.

B2: 5E5VH12_VL8 IgG1 (antibody, V domains shown)
VH: QLQLVESGGGLVQPGGSLRLSCAASGFTFGTYSMRWVRQVPRKALEWVSSISTDGGGTAYRDSVKGRFTISRDNAKNTLYLQMNNLKPEDTAIYYCVIHGYSDWGQGTQVTVSS
VL: B1 VL with D1A, I2T, V3M, M4L, L9G, P12S, T14V, S68T, R82G, Q105S
On to B2, for which the Kd in the test with human ApoC3 [5] is 8.79 nM; with human ApoC3 [6] it was 0.609 nM.

B3: 5E5VHWT_VL8 IgG1 (antibody, V domains shown)
VH: B2 VH with H99A
VL: B1 VL with D1A, I2T, V3M, M4L, L9G, P12S, T14V, S68T, R82G, Q105S
As to B3, the figures for the Kd with human ApoC3 [5] and in the test with human ApoC3 [6] were 0.0556 nM and 0.0363 nM, respectively.

B4: mAb17 (antibody, V domains shown)
VH: B1 VH with G28S, V38A, G53A, S83N, I91V
VL: B1 VL with S18P, D33G, S68T, K84E, H95Q
For the molecule B4, the Kd with human ApoC3 [1] came to 62.4 nM; in the test with human ApoC3 [2], 0.342 nM; in the test with human ApoC3 [3], 257 nM; with human ApoC3 [4] it was 0.0464 nM.

B5: mAb8 (antibody, V domains shown)
VH: B1 VH with G28S, V38A, E52D, G53A, S83N, I91V
VL: B1 VL with P12S, T14V, S18P, K84E, A88V
Turning to B5, the Kd is 241 nM with human ApoC3 [1], 0.749 nM with human ApoC3 [2], 242 nM with human ApoC3 [3] and 0.102 nM in the test with human ApoC3 [4].

B6: mAb11 (antibody, V domains shown)
VH: B1 VH with G28S, S83N, I91V
VL: B1 VL with P12S, S18P, K84E, A88V
With B6, the Kd in the test with human ApoC3 [1] was found to be 129 nM; with human ApoC3 [2], 0.331 nM; with human ApoC3 [3], 503 nM; in the test with human ApoC3 [4], 0.173 nM.

B7: mAb5 (antibody, V domains shown)
VH: B1 VH with V38A, I91V
VL: B1 VL with S68T
For B7, the Kd with human ApoC3 [1] was found to be 181 nM; with human ApoC3 [2], 0.345 nM; in the test with human ApoC3 [3], 408 nM; in the test with human ApoC3 [4] it was 0.148 nM.

B8: 5E5VHWT_VL8 scFv-Fc (antibody, V domains shown)
VH: B2 VH with H99A
VL: B1 VL with D1A, I2T, V3M, M4L, L9G, P12S, T14V, S68T, R82G, Q105S
For B8, the Kd in the test with human ApoC3 [7] came to 0.58 nM; with human ApoC3 [8] it was 4.29 nM.

B9: mAb9 (antibody, V domains shown)
VH: B1 VH with G28S, V38A, E52D, G53A, S83N, I91V
VL: B1 VL with P12S, S18P, K84E, A88V
As for B9, the equilibrium dissociation constant (Kd) with human ApoC3 [1] came out at 232 nM; with human ApoC3 [2] it was 0.759 nM; in the test with human ApoC3 [3] it was 541 nM; in the test with human ApoC3 [4], 0.149 nM.

B10: mAb1 (antibody, V domains shown)
VH: B1 VH
VL: B1 VL with S68T
Turning to B10, the Kd with human ApoC3 [1] amounted to 73.9 nM; with human ApoC3 [2] it was 0.237 nM; in the test with human ApoC3 [3], 253 nM; in the test with human ApoC3 [4], 0.0454 nM.

B11: mAb7 (antibody, V domains shown)
VH: B1 VH with G28S, V38A, E52G, S83N
VL: B1 VL
As for B11, the Kd with human ApoC3 [1] worked out at 247 nM; with human ApoC3 [2], 4.89 nM; with human ApoC3 [3] it was 583 nM; with human ApoC3 [4] it was 0.0928 nM.

B12: mAb4 (antibody, V domains shown)
VH: B1 VH with V38A
VL: B1 VL
On to B12, for which the dissociation constant Kd with human ApoC3 [1] amounted to 124 nM; in the test with human ApoC3 [2], 0.374 nM; with human ApoC3 [3] it was 432 nM; with human ApoC3 [4], 0.00464 nM.

B13: mAb16 (antibody, V domains shown)
VH: B1 VH with V38A, G53A, S83N, R85K, L107Q
VL: B1 VL with D33G, S68T, K84E, Q105S
For the molecule B13, the Kd with human ApoC3 [1] amounted to 596 nM; with human ApoC3 [2], 7.44 nM; with human ApoC3 [4] it was 0.687 nM.

B14: mAb14 (antibody, V domains shown)
VH: B1 VH with V3L, A73S, I91V
VL: B1 VL with S18P, F41Y, Q51L, K84E, A88V
In the case of B14, the Kd with human ApoC3 [1] is 1760 nM; with human ApoC3 [2], 21.3 nM; with human ApoC3 [4] it was 2.96 nM.

B15: mAb12 (antibody, V domains shown)
VH: B1 VH with G28S, E52D, G53A, A86P
VL: B1 VL with P12S, S18P, S68T, A88V
B15: the Kd with human ApoC3 [1] was found to be 321 nM; with human ApoC3 [2] it was 0.139 nM; with human ApoC3 [3], 343 nM; with human ApoC3 [4] it was 0.0655 nM.

B16: mAb13 (antibody, V domains shown)
VH: B1 VH with V3L, G28S, A73S, I91V
VL: B1 VL with S18P, F41Y, Q51L, K84E, A88V
Regarding B16, the Kd amounted to 1000 nM with human ApoC3 [1], 5.56 nM with human ApoC3 [2] and 4.19 nM with human ApoC3 [4].

B17: mAb6 (antibody, V domains shown)
VH: B1 VH with V38A, I91V
VL: B1 VL
As to B17, the Kd was 165 nM in the test with human ApoC3 [1], 0.347 nM with human ApoC3 [2], 861 nM with human ApoC3 [3] and 0.0599 nM in the test with human ApoC3 [4].

B18: 5E5VH5_VL8 IgG1 (antibody, V domains shown)
VH: B2 VH with S52H, H99A
VL: B1 VL with D1A, I2T, V3M, M4L, L9G, P12S, T14V, S68T, R82G, Q105S
Consider B18, for which the Kd with human ApoC3 [5] was found to be 11.4 nM; with human ApoC3 [6], 0.975 nM; with human ApoC3 [1], 298 nM; in the test with human ApoC3 [2], 11.4 nM; in the test with human ApoC3 [4] it was 0.975 nM.

B19: mAb20 (antibody, V domains shown)
VH: B1 VH with G28S, V38A, E52D, G53A, S83N, A86P, I91V
VL: B1 VL with L9G, P12S, S18P, D33G, S68T, R82G, K84E
For B19, the Kd was 1340 nM with human ApoC3 [1], 9.44 nM in the test with human ApoC3 [2] and 0.586 nM with human ApoC3 [4].

B20: mAb10 (antibody, V domains shown)
VH: B1 VH with G28S, S83N, I91V
VL: B1 VL with P12S, T14V, S18P, K84E, A88V
Take B20: the dissociation constant Kd came to 189 nM with human ApoC3 [1], 0.27 nM with human ApoC3 [2], 334 nM with human ApoC3 [3] and 0.0956 nM with human ApoC3 [4].

B21: mAb18 (antibody, V domains shown)
VH: B1 VH with G28S, V38A, G53A, S83N, I91V
VL: B1 VL with S18P, D33G, S68T, K84E
Take B21: the results for the Kd with human ApoC3 [1], with human ApoC3 [2] and with human ApoC3 [4] were 509 nM, 8.62 nM and 1.33 nM, respectively.

B22: mAb19 (antibody, V domains shown)
VH: B1 VH with G28S, V38A, E52D, G53A, S83N, A86P, I91V
VL: B1 VL with L9G, P12S, S18P, D33G, S68T, R82G, K84E, H95Q
With B22, the dissociation constant (Kd) was 35.5 nM in the test with human ApoC3 [1], 0.417 nM with human ApoC3 [2], 157 nM with human ApoC3 [3] and 0.0453 nM with human ApoC3 [4].

B23: mAb15 (antibody, V domains shown)
VH: B1 VH with V38A, G53A, S83N, R85K, L107Q
VL: B1 VL with D33G, S68T, K84E, H95Q, Q105S
B23: the dissociation constant Kd with human ApoC3 [1] was 34.7 nM; with human ApoC3 [2], 0.353 nM; in the test with human ApoC3 [3], 86.2 nM; in the test with human ApoC3 [4], 0.00538 nM.

B24: mAb3 (antibody, V domains shown)
VH: B1 VH with V38A
VL: B1 VL with S68T
Consider B24, for which the Kd was 174 nM with human ApoC3 [1], 0.351 nM with human ApoC3 [2], 323 nM with human ApoC3 [3] and 0.11 nM with human ApoC3 [4].

B25: 5E5VH5VH12_VLWT IgG1 (antibody, V domains shown)
VH: B2 VH with S52H
VL: ATMLTQSPGSLSVVPGESASISCKTSQGLVHSDGKTYFYWFLQKPGQSPQQLIYQVSNRASGVPDRFTGSGSGTDFTLKISGVKAEDAGVYYCAQGTYYPHTFGSGTRLEIK
With B25, the Kd with human ApoC3 [5] turned out to be 20.2 nM; with human ApoC3 [6], 4.96 nM.

B26: 5E5WT scFv-Fc (antibody, V domains shown)
VH: B2 VH with H99A
VL: B25 VL
Regarding B26, the Kd in the test with human ApoC3 [7] came to 0.02 nM; with human ApoC3 [8] it was 0.06 nM.

B27: 5E5VH5_VLWT IgG1 (antibody, V domains shown)
VH: B2 VH with S52H, H99A
VL: B25 VL
Turning to B27, the Kd in the test with human ApoC3 [5] worked out at 1.31 nM; with human ApoC3 [6], 0.211 nM.

B28: 5E5VH12_VLWT IgG1 (antibody, V domains shown)
VH: B2 VH
VL: B25 VL
B28: the dissociation constant (Kd) came out at 1.02 nM with human ApoC3 [5] and 0.0351 nM with human ApoC3 [6].

B29: 5E5VH5_VLWT scFv-Fc (antibody, V domains shown)
VH: B2 VH with S52H, H99A
VL: B25 VL
Turning to B29, the Kd with human ApoC3 [7] stood at 0.59 nM; in the test with human ApoC3 [8], 10.9 nM.

B30: 5E5WT (5E5) IgG1 (antibody, V domains shown)
VH: B2 VH with H99A
VL: B25 VL
B30: the Kd with human ApoC3 [5] came out at 0.0499 nM; in the test with human ApoC3 [6], 0.0512 nM; with human ApoC3 [2], 0.0499 nM; with human ApoC3 [4], 0.0512 nM.
